B1: PRG-PH (non-fluorescent PH domain of PDZRhoGEF) (domain or fragment, UniProt O15085 924-1085, looked up)
chain: VKQTENRHRLEGYQKRLDATALERASNPLAAEFKSLDLTTRKMIHEGPLTWRISKDKTLDLHVLLLEDLLVLLQKQDEKLLLKCHSKTAVGSSDSKQTFSPVLKLNAVLIRSVATDKRAFFIICTSKLGPPQIYELVALTSSDKNTWMELLEEAVRNATRHP
notes: PH domain of PDZRhoGEF (PRG); also called PDZRhoGEF-PH
B2: PH domain from mouse p114RhoGEF (residues 302-444) (domain or fragment, UniProt Q6P9R4-1 302-444, looked up)
chain: YEKDQRLKEIAAKTDQKSSGKLKNGLTFRKEDMLQQRQLHLEGALCWKSTSGRLKDVLAVLLTDVLLLLQEKDQKYVFASVDSKPPVISLQKLIVREVANEEKAMFLISASMQGPEMYEMYTSSKEDRNIWMAHIRRAVESCP
notes: p114RhoGEF, mouse, PH domain, residues 302-444; The final model holds residues 299-444, three more at the N-terminus than the stated construct; also called p114-PH; p114RhoGEF-PH
B3: PH domain from human AKAP-LbcRhoGEF (residues 2195-2333) (domain or fragment, UniProt Q12802 2195-2333, looked up)
chain: YEKKVRLNEIYTKTDSKSIMRMKSGQMFAKEDLKRKKLVRDGSVFLKNAAGRLKEVQAVLLTDILVFLQEKDQKYIFASLDQKSTVISLKKLIVREVAHEEKGLFLISMGMTDPEMVEVHASSKEERNSWIQIIQDTIN
notes: AKAP-LbcRhoGEF, human, PH domain, residues 2195-2333; also called AKAP-Lbc-PH; AKAP-LbcRhoGEF-PH
B4: p115-PH (PH domain of p115RhoGEF) (domain or fragment, UniProt Q92888 647-760, looked up)
chain: KLVHEGPLTWRVTKDKAVEVHVLLLDDLLLLLQRQDERLLLKSHSRTLTPTPDGKTMLRPVLRLTSAMTREVATDHKAFYVLFTWDQEAQIYELVAQTVSERKNWCALITETAG
notes: PH domain of p115 (Lbc-family RhoGEF)

Four molecules from paper PMC5988292, “Crystal structures of the PH domains from Lbc family of RhoGEFs bound to activated RhoA GTPase” (Data in Brief, 2018) can be followed below.

Several values for one entry are separate records, joined by “and”; a condition that tells them apart may be missing. Identical values can stand only once.

The target of the experiment is T1, YFP-RhoA·GTPγS (UniProt P61586 1-193).
T1 construct: RhoA; Loaded with GTPγS
The experiment is described as follows: FRET or BRET; competition: non-fluorescent PH domain titrated into 1 μM YFP-RhoA·GTPγS + 1 μM CFP-PRG-PH; 20 mM NaHEPES pH 7.5, 1 mM EDTA, 1 mM DTT, 100 mM NaCl, 5 mM MgCl2; 25 °C; ratio 525/475 nm. The following applies: both partners purified.
As a reminder, the IC50 is the concentration needed to halve the response being measured. Turning to B1, the half-inhibitory concentration (IC50) is 3 µM.
B2: the 50% inhibitory concentration (IC50) was > 60 µM and ~60 µM.
With B3, the IC50 is about 20 µM.
In the case of B4 it was over 150 µM.
